Assay results from publication PMC2679207, “GLS-1, a Novel P Granule Component, Modulates a Network of Conserved RNA Regulators to Influence Germ Cell Fate Decisions” (PLoS Genetics, 2009).

Biological target: T1, GLD-3L with C-terminal His tag, MBP cleaved off (C. elegans, UniProt Q95ZK7-1 1-969)
T1 construct: GLD-3, C. elegans, isoform GLD-3L; also called GLD-3L^6His; source: insect cells, purified on amylose beads, MBP cleaved off by PreScission protease; not shown: MBP, N-terminal, cleaved; His6, C-terminal, kept
T1 sequence (looked up): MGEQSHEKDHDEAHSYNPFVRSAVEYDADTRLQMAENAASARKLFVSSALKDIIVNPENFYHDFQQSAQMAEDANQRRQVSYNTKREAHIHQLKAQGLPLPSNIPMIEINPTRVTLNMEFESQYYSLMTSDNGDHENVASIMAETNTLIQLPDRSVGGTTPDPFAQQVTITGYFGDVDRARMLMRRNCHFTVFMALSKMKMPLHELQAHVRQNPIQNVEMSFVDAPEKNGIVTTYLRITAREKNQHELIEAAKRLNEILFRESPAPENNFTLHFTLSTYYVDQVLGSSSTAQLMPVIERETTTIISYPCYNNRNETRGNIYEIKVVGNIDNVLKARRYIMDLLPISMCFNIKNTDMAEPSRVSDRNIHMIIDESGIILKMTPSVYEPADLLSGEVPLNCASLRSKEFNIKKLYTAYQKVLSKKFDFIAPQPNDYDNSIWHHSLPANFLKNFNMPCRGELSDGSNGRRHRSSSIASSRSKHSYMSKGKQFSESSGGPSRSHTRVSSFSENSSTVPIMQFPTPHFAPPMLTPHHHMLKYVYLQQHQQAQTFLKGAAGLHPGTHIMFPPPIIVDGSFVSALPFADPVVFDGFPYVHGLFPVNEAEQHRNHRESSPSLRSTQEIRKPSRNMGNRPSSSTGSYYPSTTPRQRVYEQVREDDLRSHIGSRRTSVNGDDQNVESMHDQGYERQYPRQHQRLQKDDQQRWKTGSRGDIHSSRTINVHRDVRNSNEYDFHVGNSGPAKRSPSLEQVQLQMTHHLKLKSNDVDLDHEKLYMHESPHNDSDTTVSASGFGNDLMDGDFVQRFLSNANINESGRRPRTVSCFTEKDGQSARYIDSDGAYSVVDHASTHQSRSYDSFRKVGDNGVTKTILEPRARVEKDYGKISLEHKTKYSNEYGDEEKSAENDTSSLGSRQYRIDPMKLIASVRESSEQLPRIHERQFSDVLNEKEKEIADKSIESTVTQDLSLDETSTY
Test: pull-down; competition assay; MBP-FBF-1 immobilized on amylose beads, loaded with GLD-3L, then challenged with increasing amounts of free GLS-1; washed; GLD-3L on beads quantified from Western blot bands
Details: both partners purified

B1: MBP-FBF-1 with C-terminal His tag, from insect cells (natural protein, C. elegans, UniProt Q9N5M6 1-614, looked up)
chain: MDQSKMRYTNQFRKTPQKPTSTEVGNHHTPAHSPMAQHETSMWNFNSLNPYFSMLNMNDGMNYARHQQNHIVTSRPPTPLTDLMSLRSFQSFPNVFMPVSRSRTSSFIQSDTDSSRLEPDDFSQNVRYCSTEIDRNNSSSKNDHLKYSRPALSRNSRSFTRSNNVLPTWSLDSNGEMRSRLSLSEVLDSGDLMKFAVDKTGCQFLEKAVKGSLTSYQKFQLFEQVIGRKDDFLKLSTNIFGNYFVQEIIGMSLTTYDDDNIKRQEKLKNFISSQMTDMCLDKFACRVIQSSLQNMDLSLACKLVQALPRDARLIAICVDQNANHVIQKVVAVIPLKNWEFIVDFVATPEHLRQICFDKYGCRVVQTIIEKLTADSINVDLTSAAQHLRERALQRLMTSVTNRCQELATNEYANYIIQHIVSNDDLAVYRECIIEKCLMRNLLSLSQEKFASHVVEKAFLHAPMELLAEMMDEIFDGYMPHPGTGKDALDIMMFHQFGNYVVQCMLTICCDAVSGRRQTKEGSYDHANSFQVWLKKLHSRVTKERHRLSRFSSGKKMIETLAHLRSTHPIYGLQSSGHESFKTDCFSTASEHDGLELEKNGIEEGNLRLMRTFSP
notes: FBF-1, PUF protein, C. elegans; also called MBP-FBF-1^6His; source: insect cells, purified on amylose beads; not shown: His6, C-terminal, kept
B1: binds.
